What all share (experiment): SPR; Biacore T200; antibody captured on anti-human Fc (CM5 chip); CD30-MBP flowed at 0, 2, 20 nM (T426: 0, 20, 200 nM), contact 90 s, dissociation 300 s; fit to a 1:1 binding mode; rough-level analysis
Holding throughout (conditions): both partners purified
Background: In SPR one partner is held on a chip, and binding of the other changes the refractive index at the surface.

Test [1] addresses T1, BpT10-105.
T1 construct: AC10 Fv, N side; T105 Fv, C side; one Fab of each Fv; knobs-into-holes Fc; source: Expi293 fragments joined by intein-mediated protein trans-splicing, purified (Superdex 200 Increase); copies: + + +

The target in test [2] is T2, BpT25-6.
T2 construct: T25 Fv, N side; T6 Fv, C side; one Fab of each Fv; knobs-into-holes Fc; source: Expi293 fragments joined by intein-mediated protein trans-splicing, purified (Superdex 200 Increase); copies: + + +
T2 sequence (chain, as listed by the source, chain 1 of 4): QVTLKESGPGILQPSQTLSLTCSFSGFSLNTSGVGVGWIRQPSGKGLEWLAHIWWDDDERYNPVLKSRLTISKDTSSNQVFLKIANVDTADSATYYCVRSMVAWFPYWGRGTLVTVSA
T2 sequence (chain, as listed by the source, chain 2 of 4): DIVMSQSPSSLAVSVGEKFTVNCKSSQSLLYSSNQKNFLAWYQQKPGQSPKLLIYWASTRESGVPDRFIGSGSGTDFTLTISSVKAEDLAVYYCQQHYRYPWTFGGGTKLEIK
T2 sequence (chain, as listed by the source, chain 3 of 4): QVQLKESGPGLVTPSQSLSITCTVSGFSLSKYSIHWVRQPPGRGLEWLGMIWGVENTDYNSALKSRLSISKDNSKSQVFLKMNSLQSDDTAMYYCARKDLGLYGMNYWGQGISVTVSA
T2 sequence (chain, as listed by the source, chain 4 of 4): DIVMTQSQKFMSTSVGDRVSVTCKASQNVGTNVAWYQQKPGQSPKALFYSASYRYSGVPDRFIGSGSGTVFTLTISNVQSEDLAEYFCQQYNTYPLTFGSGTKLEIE

In test [3] the target is T3, BpT25-405.
T3 construct: T25 Fv, N side; T405 Fv, C side; one Fab of each Fv; knobs-into-holes Fc; source: Expi293 fragments joined by intein-mediated protein trans-splicing, purified (Superdex 200 Increase); copies: + + +

For test [4], the target named is T4, BpT107-25.
T4 construct: T107 Fv, N side; T25 Fv, C side; one Fab of each Fv; knobs-into-holes Fc; source: Expi293 fragments joined by intein-mediated protein trans-splicing, purified (Superdex 200 Increase); copies: + + +
T4 sequence (chain, as listed by the source, chain 1 of 4): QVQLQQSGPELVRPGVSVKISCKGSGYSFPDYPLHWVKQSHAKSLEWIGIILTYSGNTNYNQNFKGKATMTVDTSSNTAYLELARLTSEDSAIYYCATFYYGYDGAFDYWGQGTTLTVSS
T4 sequence (chain, as listed by the source, chain 2 of 4): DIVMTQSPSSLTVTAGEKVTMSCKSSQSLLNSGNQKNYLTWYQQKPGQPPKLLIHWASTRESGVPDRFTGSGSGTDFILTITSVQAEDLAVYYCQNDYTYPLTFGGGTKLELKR

In test [5] the target is T5, BpT104-405.
T5 construct: T104 Fv, N side; T405 Fv, C side; one Fab of each Fv; knobs-into-holes Fc; source: Expi293 fragments joined by intein-mediated protein trans-splicing, purified (Superdex 200 Increase); copies: + + +

The target in test [6] is T6, BpT105-6.
T6 construct: T105 Fv, N side; T6 Fv, C side; one Fab of each Fv; knobs-into-holes Fc; source: Expi293 fragments joined by intein-mediated protein trans-splicing, purified (Superdex 200 Increase); copies: + + +
T6 sequence (chain, as listed by the source, chain 1 of 4): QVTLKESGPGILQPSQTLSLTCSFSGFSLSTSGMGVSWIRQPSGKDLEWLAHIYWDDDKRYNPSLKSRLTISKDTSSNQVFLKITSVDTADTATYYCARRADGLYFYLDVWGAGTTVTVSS
T6 sequence (chain, as listed by the source, chain 2 of 4): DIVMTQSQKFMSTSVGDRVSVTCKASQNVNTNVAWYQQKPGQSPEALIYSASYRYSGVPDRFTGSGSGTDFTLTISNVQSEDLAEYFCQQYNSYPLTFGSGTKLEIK

Test [7] addresses T7, BpT107-6.
T7 construct: T107 Fv, N side; T6 Fv, C side; one Fab of each Fv; knobs-into-holes Fc; source: Expi293 fragments joined by intein-mediated protein trans-splicing, purified (Superdex 200 Increase); copies: + + +

Test [8] addresses T8, BpT10-104.
T8 construct: AC10 Fv, N side; T104 Fv, C side; one Fab of each Fv; knobs-into-holes Fc; source: Expi293 fragments joined by intein-mediated protein trans-splicing, purified (Superdex 200 Increase); copies: + + +

Test [9] concerns the target T9, BpT10-6.
T9 construct: AC10 Fv, N side; T6 Fv, C side; one Fab of each Fv; knobs-into-holes Fc; source: Expi293 fragments joined by intein-mediated protein trans-splicing, purified (Superdex 200 Increase); copies: + + +

The target of test [10] is T10, BpT427-6.
T10 construct: T427 Fv, N side; T6 Fv, C side; one Fab of each Fv; knobs-into-holes Fc; source: Expi293 fragments joined by intein-mediated protein trans-splicing, purified (Superdex 200 Increase); copies: + + +
T10 sequence (chain, as listed by the source, chain 1 of 4): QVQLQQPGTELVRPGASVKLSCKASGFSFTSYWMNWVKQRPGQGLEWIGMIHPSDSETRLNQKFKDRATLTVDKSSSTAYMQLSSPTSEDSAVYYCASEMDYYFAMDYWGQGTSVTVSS
T10 sequence (chain, as listed by the source, chain 2 of 4): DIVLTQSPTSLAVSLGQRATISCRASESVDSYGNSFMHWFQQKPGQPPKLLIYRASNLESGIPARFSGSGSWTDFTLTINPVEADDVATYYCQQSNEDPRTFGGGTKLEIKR

Test [11] deals with T11, BpT104-6.
T11 construct: T104 Fv, N side; T6 Fv, C side; one Fab of each Fv; knobs-into-holes Fc; source: Expi293 fragments joined by intein-mediated protein trans-splicing, purified (Superdex 200 Increase); copies: + + +
T11 sequence (chain, as listed by the source, chain 1 of 4): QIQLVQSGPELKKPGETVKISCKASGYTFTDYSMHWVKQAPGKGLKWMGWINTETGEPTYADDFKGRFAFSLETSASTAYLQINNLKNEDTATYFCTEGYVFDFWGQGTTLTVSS
T11 sequence (chain, as listed by the source, chain 2 of 4): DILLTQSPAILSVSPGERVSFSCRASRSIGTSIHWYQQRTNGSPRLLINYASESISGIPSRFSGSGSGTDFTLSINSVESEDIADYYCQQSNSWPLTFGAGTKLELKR

Test [12] concerns the target T12, BpT10-405.
T12 construct: AC10 Fv, N side; T405 Fv, C side; one Fab of each Fv; knobs-into-holes Fc; source: Expi293 fragments joined by intein-mediated protein trans-splicing, purified (Superdex 200 Increase); copies: + + +

T1 sequence (chain, as listed by the source, chain 1 of 4): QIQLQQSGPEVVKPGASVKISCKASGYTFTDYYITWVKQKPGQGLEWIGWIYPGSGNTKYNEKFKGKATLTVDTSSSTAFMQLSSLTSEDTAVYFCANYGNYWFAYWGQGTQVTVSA
T1 sequence (chain, as listed by the source, chain 2 of 4): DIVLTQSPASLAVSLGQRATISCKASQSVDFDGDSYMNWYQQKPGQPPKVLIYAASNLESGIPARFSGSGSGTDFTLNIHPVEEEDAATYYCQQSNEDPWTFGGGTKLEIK

B1: Maltose-binding protein-fused CD30 (domain or fragment)
chain: FPQDRPFEDTCHGNPSHYYDKAVRRCCYRCPMGLFPTQQCPQRPTDCRKQCEPDYYLDEADRCTACVTCSRDDLVEKTPCAWNSSRVCECRPGMFCSTSAVNSCARCFFHSVCPAGMIVKFPGTAQKNTVCEPASPGVSPACASPENCKEPSSGTIPQAKPTPVSPATSSASTMPVRGGTRLAQEAASKLTRAPDSPSSVGRPSSDPGLSPTQPCPEGSGDCRKQCEPDYYLDEAGRCTACVSCSRDDLVEKTPCAWNSSRTCECRPGMICATSATNSCARCVPYPICAAETVTKPQDMAEKDTTFEAPPLGTQPDCN
modifications: Construct 1-336 includes signal peptide 1-18, taken as cleaved on secretion; C-terminal MBP carrier and His tag left out; disulfide-bonded, likely glycosylated (Expi293)
B1: the Kd worked out at 0.066 nM in [1]; 0.46 nM in test [2]; 0.91 nM in test [3]; 0.87 nM in test [4]; 48 nM in test [5]; 0.37 nM in [6]. Besides, the Kd in test [7] was found to be 0.37 nM; in test [8], 0.26 nM; in test [9], 0.27 nM; in test [10], 0.26 nM; in test [11], 0.59 nM; in test [12], 0.63 nM.

Usually Kd stands for the free concentration of one partner at which half of the binding sites on the other are occupied at equilibrium, for simple one-to-one binding. A higher Kd goes with lower affinity.

(Values after paper PMC11826918, “Generation of antagonistic biparatopic anti-CD30 antibody from an agonistic antibody by precise epitope determination and utilization of structural characteristics of CD30 molecule” (Antibody Therapeutics, 2025).)
